Assay [1] concerns the target T1, Dog serum albumin (dog, UniProt P49822 25-608).
T1 construct: bought; immobilised on a CM5 chip by amine coupling; also called Dog SA
The assay is described as follows: SPR, SA on chip, 1:1 fit, 25 C.
Description: (§1) Human SA is obtained from Sigma Aldrich (Cat. No. A8763). […] Mouse SA is obtained from Sigma Aldrich (Cat. No. A3139). Rat SA is obtained from Sigma Aldrich (Cat. No. A4538). Pig SA is obtained from Sigma Aldrich (Cat. No. A4414). […] Cow SA is obtained from Sigma Aldrich (Cat. No. A7030). […] Excess reactive groups on the surfaces (flow cell 1 and 2) are deactivated by injecting 70 μl of 1 M Ethanolamine hydrochloride-NaOH pH 8.5.
(§2) 180 μl of sample are individually injected sequentially across the immobilized SAs on the chip's surface and dissociated for 600 sec at 60 μl/min flow rate at 25° C.

Assay [2] has as its target T2, Pig serum albumin (pig, UniProt P08835 25-607).
T2 construct: bought; immobilised on a CM5 chip by amine coupling; also called Pig SA
The assay is described as follows: SPR, SA on chip, 1:1 fit, 25 C.
Description: as §1, §2

Assay [3] concerns the target T3, Cow serum albumin (cow, UniProt P02769 25-607).
T3 construct: bought; immobilised on a CM5 chip by amine coupling; also called Cow SA
Description: SPR, SA on chip, 1:1 fit, 25 C.
Description: as §1, §2

The target in assay [4] is T4, Cynomolgus monkey serum albumin (cynomolgus monkey, UniProt A2V9Z4 25-608).
T4 construct: bought; immobilised on a CM5 chip by amine coupling; also called Cyno SA
The assay is described as follows: SPR, SA on chip, 1:1 fit, 25 C.
Description: as §1, §2

Assay [5] deals with T5, Human serum albumin (human, UniProt P02768 25-609).
T5 construct: bought; immobilised on a CM5 chip by amine coupling; also called Human SA
The assay is described as follows: SPR, SA on chip, 1:1 fit, 25 C.
Description: as §1, §2

Assay [6] addresses T6, Rat serum albumin (rat, UniProt P02770 25-608).
T6 construct: bought; immobilised on a CM5 chip by amine coupling; also called Rat SA
Description: SPR, SA on chip, 1:1 fit, 25 C.
Description: as §1, §2

Assay [7] deals with T7, Mouse serum albumin (mouse, UniProt P07724 25-608).
T7 construct: bought; immobilised on a CM5 chip by amine coupling; also called Mouse SA
Description: SPR, SA on chip, 1:1 fit, 25 C.
Description: as §1, §2

For assay [8], the target named is T8, Rabbit serum albumin (rabbit, UniProt P49065 25-608).
T8 construct: bought; immobilised on a CM5 chip by amine coupling; also called Rabbit SA
The assay is described as follows: SPR, SA on chip, 25 C.
Description: as §1, §2

The target of assay [9] is T9, human CNTF receptor (CNTFR) on IMR-32 cells (human, UniProt P26992 23-342).
T9 sequence (looked up): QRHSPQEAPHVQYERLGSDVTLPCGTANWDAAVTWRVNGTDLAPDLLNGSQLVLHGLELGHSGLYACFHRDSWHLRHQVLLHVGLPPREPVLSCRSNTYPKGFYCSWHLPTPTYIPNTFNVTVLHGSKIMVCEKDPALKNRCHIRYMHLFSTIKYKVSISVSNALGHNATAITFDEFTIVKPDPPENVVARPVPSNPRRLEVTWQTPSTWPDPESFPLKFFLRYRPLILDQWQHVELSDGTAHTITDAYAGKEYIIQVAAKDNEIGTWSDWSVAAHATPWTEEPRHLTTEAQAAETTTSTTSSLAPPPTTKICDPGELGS
Description: cell-based or functional assay.

The target of assay [10] is T8, Rabbit serum albumin. Description: SPR, SA on chip, 25 C. The source holds these as a separate data set.
Description: as §1, §2
For assay [11], the target named is T1, Dog serum albumin. The assay is described as follows: SPR, SA on chip, 1:1 fit, 25 C. This is another data set of the same source.
Description: as §1, §2
For assay [12], the target named is T2, Pig serum albumin. The assay is described as follows: SPR, SA on chip, 1:1 fit, 25 C. The source holds these as a separate data set.
Description: as §1, §2
Assay [13] deals with T3, Cow serum albumin. Description: SPR, SA on chip, 1:1 fit, 25 C. The source holds these as a separate data set.
Description: as §1, §2
For assay [14], the target named is T4, Cynomolgus monkey serum albumin. Description: SPR, SA on chip, 1:1 fit, 25 C. This is another data set of the same source.
Description: as §1, §2
In assay [15] the target is T5, Human serum albumin. Description: SPR, SA on chip, 1:1 fit, 25 C. The source holds these as a separate data set.
Description: as §1, §2
Assay [16] has as its target T6, Rat serum albumin. Description: SPR, SA on chip, 1:1 fit, 25 C. The source holds these as a separate data set.
Description: as §1, §2
Assay [17] concerns the target T7, Mouse serum albumin. The assay is described as follows: SPR, SA on chip, 1:1 fit, 25 C. This is another data set of the same source.
Description: as §1, §2

The values that follow come from patent US20240316154A1 (Eli Lilly, published 2024).

Read-outs that look alike come from different tables or passages of the source.

B1: VHH-based fusion of Example 2, VHH fusion 2 (MC6.1C22-(G4Q)5-CNTF) (other)
chain: EVQLLESGGGLVQPGGSLRLSCAASGRYIDETAVAWFRQAPGKEREFVAGIGGGVDITYYADSVKGRFTISRDNSKNTLYLQMNSLRPEDTAVYYCAARPGRPLITSKVADLYPYWGQGTLVTVSSGGGGQGGGGQGGGGQGGGGQGGGGQMAFTEHSPLTPHRRDLASRSIWLARKIRSDLTALTESYVKHQGLNKNINLDSADGMPVASTDRWSELTEAERLQENLQAYRTFHVLLARLLEDQQVHFTPTEGDFHQAIHTLLLQVAAFAYQIEELMILLEYKIPRNEADGMPINVGDGGLFEKKLWGLKVLQELSQWTVRSIHDLRFISSHQTG
notes: also called Compound 2; VHH-CNTF fusion
In the case of B1, the equilibrium dissociation constant (Kd) in assay [1] came out at 3.7 nM; in [2], 19 nM; in [3] it was 110 nM; in assay [4], 1.2 nM; in assay [5], 0.58 nM; in assay [6] it was 6.1 nM. This molecule showed a Kd in assay [7] of 8.8 nM. The koff was 0.0017 s⁻¹ in assay [1]; 0.0057 s⁻¹ in assay [2]; 0.052 s⁻¹ in assay [3]; 0.0006 s⁻¹ in [4]; 0.00025 s⁻¹ in assay [5]; 0.003 s⁻¹ in assay [6]. Further, in assay [7], the koff stood at 0.0042 s⁻¹. Further, the kon is 460000 M⁻¹ s⁻¹ in assay [1]; 300000 M⁻¹ s⁻¹ in assay [2]; 460000 M⁻¹ s⁻¹ in assay [3]; 500000 M⁻¹ s⁻¹ in assay [4]; 430000 M⁻¹ s⁻¹ in assay [5]; 490000 M⁻¹ s⁻¹ in [6]. In [7], this molecule registered a kon of 480000 M⁻¹ s⁻¹. For the same molecule, the binding result in assay [8] was “no binding (tested: up to 1000 nM)”. For the same molecule, the “hCNTFR EC50 pM GeoMean (pSTAT3 in IMR-32 cells)” value in assay [9] was 8.39 pM.

B2: VHH-based fusion of Example 1, VHH fusion 1 (CNTF-(G4Q)5-MC6.1C22.43) (other)
chain: MAFTEHSPLTPHRRDLASRSIWLARKIRSDLTALTESYVKHQGLNKNINLDSADGMPVASTDRWSELTEAERLQENLQAYRTFHVLLARLLEDQQVHFTPTEGDFHQAIHTLLLQVAAFAYQIEELMILLEYKIPRNEADGMPINVGDGGLFEKKLWGLKVLQELSQWTVRSIHDLRFISSHQTGGGGGQGGGGQGGGGQGGGGQGGGGQEVQLLESGGGLVQPGGSLRLSCAASGRYIDETAVAWFRQAPGKEREFVAGIGGGVDITYYADSVKGRFTISRDNSKNTLYLQMNSLRPEDTAVYYCAARPGRPLITSKVADLYPYWGQGTLVTVSSPP
notes: also called Compound 1; CNTF-VHH fusion
With B2, in assay [10], the binding result is “no binding (tested: up to 1000 nM)”. Moreover, the “hCNTFR EC50 pM GeoMean (pSTAT3 in IMR-32 cells)” value in assay [9] was found to be 7.09 pM. The Kd turned out to be 40 nM in assay [11]; 190 nM in assay [12]; 820 nM in assay [13]; 13 nM in assay [14]; 3.2 nM in assay [15]; 83 nM in assay [16]. The Kd in assay [17] stood at 100 nM. Also, the koff in assay [11] is 0.0032 s⁻¹; in assay [12] it was 0.011 s⁻¹; in assay [13], 0.074 s⁻¹; in [14] it was 0.00086 s⁻¹; in [15] it was 0.00024 s⁻¹; in assay [16] it was 0.0063 s⁻¹. Also, the koff in assay [17] was 0.0082 s⁻¹. In addition, the kon in [11] amounted to 79000 M⁻¹ s⁻¹; in assay [12], 58000 M⁻¹ s⁻¹; in [13] it was 91000 M⁻¹ s⁻¹; in assay [14] it was 68000 M⁻¹ s⁻¹; in [15], 76000 M⁻¹ s⁻¹; in assay [16], 75000 M⁻¹ s⁻¹. The molecule also had a kon in assay [17] of 81000 M⁻¹ s⁻¹.
